Measurements reported in patent US20060178504A1.

Molecular target: binding sites on guinea-pig eosinophils (guinea-pig)
Test: radioligand binding, 0.1 nM 125I-RANTES on 4x10^5 guinea-pig eosinophils, no competitor

Substance: recombinant human RANTES (from UniProt P13501 24-91) (ligand)
- BO: 14.4%
